These results are taken from paper PMC2120989 (The Journal of Cell Biology, 1996).

Assay [1] deals with full-length recombinant fascin, thioredoxin fusion protein (mouse, UniProt Q61553 1-493). The assay can be described thus: co-IP.
Assay [2] concerns the target T1, recombinant full-length (His)6-tagged Xenopus beta-catenin (Xenopus, UniProt P26233 1-781).
T1 sequence (looked up): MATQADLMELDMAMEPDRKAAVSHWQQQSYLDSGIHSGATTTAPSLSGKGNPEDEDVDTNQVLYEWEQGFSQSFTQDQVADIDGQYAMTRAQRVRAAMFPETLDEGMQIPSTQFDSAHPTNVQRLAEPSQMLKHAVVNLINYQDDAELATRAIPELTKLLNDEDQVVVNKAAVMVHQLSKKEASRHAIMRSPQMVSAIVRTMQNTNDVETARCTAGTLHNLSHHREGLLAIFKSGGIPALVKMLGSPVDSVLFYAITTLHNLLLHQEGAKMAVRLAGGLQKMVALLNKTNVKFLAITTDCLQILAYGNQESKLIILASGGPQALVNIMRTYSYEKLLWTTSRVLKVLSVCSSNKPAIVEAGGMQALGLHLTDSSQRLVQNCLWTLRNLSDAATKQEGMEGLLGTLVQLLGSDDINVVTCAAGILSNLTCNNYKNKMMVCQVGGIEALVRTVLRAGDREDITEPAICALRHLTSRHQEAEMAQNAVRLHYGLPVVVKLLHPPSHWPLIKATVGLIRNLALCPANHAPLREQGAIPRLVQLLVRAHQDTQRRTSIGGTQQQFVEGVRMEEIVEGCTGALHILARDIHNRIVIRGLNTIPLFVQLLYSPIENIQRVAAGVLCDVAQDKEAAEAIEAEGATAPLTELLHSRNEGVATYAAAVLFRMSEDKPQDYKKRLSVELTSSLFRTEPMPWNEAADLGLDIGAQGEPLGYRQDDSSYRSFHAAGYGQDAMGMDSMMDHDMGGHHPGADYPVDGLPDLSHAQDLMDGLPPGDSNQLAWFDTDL
The assay can be described thus: co-IP.

B1: GST fusion protein of the Armadillo repeat region of beta-catenin (amino acid residues 167-583) (domain or fragment)
chain: VVNKAAVMVHQLSKKEASRHAIMRSPQMVSAIVRTMQNTNDVETARCTAGTLHNLSHHREGLLAIFKSGGIPALVKMLGSPVDSVLFYAITTLHNLLLHQEGAKMAVRLAGGLQKMVALLNKTNVKFLAITTDCLQILAYGNQESKLIILASGGPQALVNIMRTYSYEKLLWTTSRVLKVLSVCSSNKPAIVEAGGMQALGLHLTDSSQRLVQNCLWTLRNLSDAATKQEGMEGLLGTLVQLLGSDDINVVTCAAGILSNLTCNNYKNKMMVCQVGGIEALVRTVLRAGDREDITEPAICALRHLTSRHQEAEMAQNAVRLHYGLPVVVKLLHPPSHWPLIKATVGLIRNLALCPANHAPLREQGAIPRLVQLLVRAHQDTQRRTSIGGTQQQFVEGVRMEEIVEGCTGALHILARD
In the case of B1, in assay [1], the binding result is “binds”.

B2: GST-E-cadherin fusion protein, cytoplasmic domain (residues 734-884) of mouse E-cadherin (domain or fragment)
chain: not shown
As for B2, in assay [2], the binding result was “binds”.
